Results as given in patent US6878521B1, “Fibril-blocking peptide, a method for preventing fibril formation” (The University of Chicago, priority 1999, dated 2005).
Entries after “also recorded” stand apart in the source; their conditions may differ. Where a SMILES comes first, the peptide text is derived from it. [ ]: non-standard residue; d: D form. Nle = CCCC[C@H](N)C(=O)O

Experiments:
[1] = target: T1, SMA (kappa-IV recombinant VL) (Homo sapiens, UniProt P06312, K56R/P66L/Q115H/T120H); assay: agitation-based in vitro SMA fibril formation assay (fluorescence); format: biochemical; conditions: for inhibition of SMA fibril formation: in vitro, result in words
T1 construct: two kappa-IV recombinant VL, LEN and SMA; made in house
Protocol: Further, the inventors used an agitation-based in vitro assay to assemble fibrils from two kappa-IV recombinant VL, LEN and SMA.
Fibril formation was measured over time at each peptide concentration. The extent of SMA fibril formation at 45 hours in the presence of various concentration so fthe peptides is plotted relative to that of SMA alone at 45 hours.
In the BiP reactions, SMA fibril formation was assayed in the range of 1 to 1000 moles SMA per mole of fibril antagonist.

[2] = system: SMA LC expressed in COS-1 cells; assay: biochemical assay of soluble and insoluble SMA in transfected COS-1 cells (western blot); format: cell-based; conditions: for amount of SMA recovered: 50 μM peptide, overnight, 1-10 μg/ml ALLN; for intracellular aggregation of SMA: in cells, result in words
[3] = system: SMA LC expressed in COS cells; assay: aggresome formation in SMA-transfected COS cells, immunofluorescence; format: cell-based; conditions: for cells exhibiting aggresomes: anti-kappa stained cells, peptides added with ALLN; for proportion of COS cells containing aggresomes: SMA-transfected, immunofluorescence, Hsp70 co-expressed, with or without ALLN
Protocol: COS-1 cells were transiently transfected with FuGENE 6 transfection reagent (Roche Molecular Biochemicals, Indianapolis, Ind.) according to manufacturer's instructions and analyzed two days later. Overnight incubations with various concentrations of ALLN (SEQ. ID. NO. 11) (Sigma Chemical Co., St. Louis, Mo.), 10 μM lactacystin (Calbiochem, La Jolla, Calif.), 10 μg/ml nocodazole (Sigma), or various concentrations of peptides were begun the day following transfection.
A peptide was synthesized that fused an HIV TAT sequence (YGRKKRRQRRR) (SEQ. ID. NO. 8) with the VL derived sequence which the inventors have shown inhibit fiber formation in vitro, discussed supra. To ensure adequate flexibility and solubility, additional VL sequence was added on both sides of the active 7-mer, generating the following sequence for the TAT-TISS peptide: NH2-[…]-OH. (SEQ. ID. NO. 9) A control peptide was synthesized (TAT-PASS) in which the critical hydrophobic residues were substituted with alanines and the extended structure of the peptide destroyed by the addition of a proline (NH2-[…]-OH). (SEQ. ID. NO. 10) cells were treated with either peptide 24 h after transfection and incubated overnight in the presence of the indicated concentrations of ALLN. (SEQ. ID. NO. […]) Cells were then harvested for western blotting or immunofluorescence as described above.
Without ALLN (SEQ. ID. NO. 11) treatment 30% of the COS cells contained aggresomes as assayed by immunofluorescence.
Lastly, the inventors determined that the decrease in steady state level of SMA in the presence of TAT-TISS (SEQ. ID. NO. 9) peptide correlated with a decrease in the frequency of aggresome formation, by scoring anti-kappa stained cells.

[4] = system: λ6 VL protein; assay: in vitro fibril assembly of λ6 VL protein; format: biochemical
[5] = target: transthyretin (Homo sapiens, UniProt P02766); conditions: Peterson et al. 1998; cited from earlier work
[6] = target: SMA, recombinant kappa-IV light chain variable domain (VL) (human); assay: cell-based or functional assay
[7] = system: SMA; assay: co-immunoprecipitation with SMA using anti-kappa antibody; format: binding, human; conditions: co-transfected, metabolically labeled cells, soluble fractions
Protocol: Culture, metabolic labeling, lysis and immunoprecipitation of COS-1 cells were performed as described in Dul et al. Immunol. […] The following antibodies were used in immunoprecipitations: rabbit anti-human kappa antibody (Bethyl Labs, Montgomery, Tex.); goat anti-human kappa (Caltag, Burlingame, Calif.); mouse anti-ubiquitin (StressGen, Victoria, BC, Canada).
Endogenous Hsp70 was also associated with SMA, but was not dramatically enriched.

Sequence of BiP (binding protein), endoplasmic reticulum chaperone, recombinant wild type (P07823 19-654): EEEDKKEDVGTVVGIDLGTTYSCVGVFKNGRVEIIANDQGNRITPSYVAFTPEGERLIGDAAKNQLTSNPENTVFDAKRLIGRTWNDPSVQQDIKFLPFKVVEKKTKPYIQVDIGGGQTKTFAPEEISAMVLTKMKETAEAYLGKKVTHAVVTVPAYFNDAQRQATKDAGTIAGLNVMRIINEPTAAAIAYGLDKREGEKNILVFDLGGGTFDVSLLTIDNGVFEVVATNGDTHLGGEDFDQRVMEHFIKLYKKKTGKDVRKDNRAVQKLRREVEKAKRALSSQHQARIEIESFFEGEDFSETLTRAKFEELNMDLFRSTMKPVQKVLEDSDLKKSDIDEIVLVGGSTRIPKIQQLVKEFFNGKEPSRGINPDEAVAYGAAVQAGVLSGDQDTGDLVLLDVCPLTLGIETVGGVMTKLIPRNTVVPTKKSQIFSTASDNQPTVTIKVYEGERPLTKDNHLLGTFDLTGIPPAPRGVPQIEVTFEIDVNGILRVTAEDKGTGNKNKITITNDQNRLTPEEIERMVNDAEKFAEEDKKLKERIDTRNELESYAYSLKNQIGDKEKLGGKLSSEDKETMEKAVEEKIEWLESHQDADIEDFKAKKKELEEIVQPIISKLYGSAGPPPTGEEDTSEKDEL

In the case of Lysozyme [reference compound], the “inhibition of SMA fibril formation” value [1] is reported as “no appreciable fibril blocking ability” and the “inhibition of SMA fibril formation” value ([1]; listed as lysozome) is reported as “did not significantly decrease fibril formation”.
For “H-YGRKKRRQRRRSGSGTDFTLTISSLQAED-OH [TAT-TISS]”, the “ubiquitinated forms of SMA” value [2] was “diminished”, the “amount of SMA recovered” value [2] was “dramatically reduced” and the cells exhibiting aggresomes [3] was 25%.
In the case of PKLLIYWA, the “inhibition of SMA fibril formation” value [1] is reported as “partial inhibition”.
With FTLKISR the “inhibition of fibril assembly of λ6 VL protein” value [4] was “inhibited fibril assembly” and the “inhibition of SMA fibril formation” value [1] was “inhibited as well as FTLTISS”.
For `O=C(O)c1ccccc1Nc1cccc(C(F)(F)F)c1` [flufenamic acid], the “inhibition of conformational changes of transthyretin” value [5] is given as “inhibits the conformational changes”.
For TDFTLTI, the “inhibition of SMA fibril formation” value [1] was “markedly inhibited the aggregation”.
In the case of albumin [reference compound], the “inhibition of SMA fibril formation” value [1] is reported as “did not significantly decrease fibril formation”.
For “H-YGRKKRRQRRRSGSGTDATAPASSLQAED-OH [TAT-PASS, reference compound]”, the “effect on yield of SMA” value ([2]; 10 μg/ml ALLN, highest peptide concentration used) was “only a marginal effect”, the “amount of SMA recovered” value [2] was “no effect” and the “inhibition of SMA fibril formation” value [1] was “does not inhibit fibril formation in vitro”. The cells exhibiting aggresomes [3] was “no significant effect”.
For TRIFSKL [reference compound], the “inhibition of SMA fibril formation” value [1] was “ineffective fibril blocker”.
With “FTLTISS [Phe71-Thr72-Leu73-Thr74-Ile75-Ser76-Ser77, peptide of positions 71 through 77 of human kappa-4 light chain variable domain]” the “intracellular aggregation of SMA” value [2] was “effective in reducing intracellular aggregation” and the “inhibition of SMA fibril formation” value [1] was “fibril blocking; also recorded: markedly inhibited the aggregation”.
For FYQLALT [reference compound], the “effect of prebinding BiP with peptide on BiP's suppression of fibril assembly” value ([1]; BiP incubated with peptide before aggregation reaction) was “blocked the chaperone's ability to suppress fibril assembly”.
For “BiP (binding protein), endoplasmic reticulum chaperone, recombinant wild type”, the SMA fibril formation (fluorescence units) at 30 SMA:1 BiP [6] was < 10 percent, the SMA fibril formation (fluorescence) at 100:1 stoichiometric ratio [6] was 75 percent and the SMA fibril formation (fluorescence) at 300:1 stoichiometric ratio [6] was 100 percent. It also gave an inhibition of SMA ordered aggregation at 75 hours, 1 mole BiP per 100 moles SMA [6] of 50%.
For `CCCC[C@@H](C=O)NC(=O)[C@H](CC(C)C)NC(=O)[C@H](CC(C)C)NC(C)=O` [ALLN, reference compound] (Ac-Leu-Leu-[Nle]-aldehyde), the “proportion of COS cells containing aggresomes” value [3] was 75% and the cells exhibiting aggresomes [3] was “about 65%”.
In the case of “Hsp70: heat shock protein 70, a family member of BiP; cytosolic chaperone”, the “ubiquitinated forms of SMA” value [2] is reported as “decrease in the pool of ubiquitinated SMA”, the “intracellular aggregation of SMA” value [2] is reported as “decreases its aggregation” and the “inhibition of SMA fibril formation” value [1] is reported as “blocked fibril formation”. For the same compound, the “inhibition of SMA fibril formation” value ([1]; listed as heat shock protein (hsp)70) was “did inhibit fibril formation”, the “association with SMA by co-immunoprecipitation” value [7] was “specifically co-immunoprecipitated with SMA” and the “proportion of COS cells containing aggresomes” value [3] was 12%. For the same compound, the “frequency of aggresome formation” value ([3]; co-expression with SMA, result in words) was “decreases the frequency of aggresome formation”.
In the case of ferritin [reference compound], the “inhibition of SMA fibril formation” value [1] is reported as “did not significantly decrease fibril formation”.
